Paper PMC2700736
Read-outs that look alike come from different tables or passages of the source.

T1: I-SceI wild-type (UniProt P03882 1-235)
T1 sequence: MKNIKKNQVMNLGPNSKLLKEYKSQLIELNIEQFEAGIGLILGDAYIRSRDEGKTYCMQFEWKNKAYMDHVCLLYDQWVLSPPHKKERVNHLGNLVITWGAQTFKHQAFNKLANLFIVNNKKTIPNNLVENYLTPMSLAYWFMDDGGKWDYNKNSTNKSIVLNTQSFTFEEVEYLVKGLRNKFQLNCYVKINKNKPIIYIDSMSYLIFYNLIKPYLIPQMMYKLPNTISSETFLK

T2: I-SceI K122I (UniProt P03882 1-235, K122I)
T2 sequence: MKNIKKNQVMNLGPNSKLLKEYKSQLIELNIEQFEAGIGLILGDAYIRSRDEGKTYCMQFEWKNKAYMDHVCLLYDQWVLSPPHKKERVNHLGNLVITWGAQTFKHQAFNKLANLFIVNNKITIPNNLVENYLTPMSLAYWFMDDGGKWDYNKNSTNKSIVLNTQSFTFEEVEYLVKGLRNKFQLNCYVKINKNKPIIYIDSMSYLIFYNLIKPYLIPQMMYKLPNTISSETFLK

T3: I-SceI K223I (UniProt P03882 1-235, K223I)
T3 sequence: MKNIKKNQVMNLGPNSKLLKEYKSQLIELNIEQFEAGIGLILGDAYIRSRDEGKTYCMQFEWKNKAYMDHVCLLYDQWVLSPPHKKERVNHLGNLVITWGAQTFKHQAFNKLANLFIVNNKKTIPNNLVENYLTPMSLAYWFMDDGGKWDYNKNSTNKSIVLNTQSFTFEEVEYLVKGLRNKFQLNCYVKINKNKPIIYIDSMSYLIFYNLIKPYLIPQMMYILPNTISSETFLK


Legend:
Assay in all cases: filter binding
I-SceI wild-type [1] = molecular target: T1, I-SceI wild-type
I-SceI wild-type [2] = molecular target: T1, I-SceI wild-type; remark: listed apart in the source
I-SceI K122I [3] = molecular target: T2, I-SceI K122I
I-SceI K223I [4] = molecular target: T3, I-SceI K223I
I-SceI K122I [5] = molecular target: T2, I-SceI K122I; remark: listed apart in the source
I-SceI K223I [6] = molecular target: T3, I-SceI K223I; remark: listed apart in the source

Row | Binder | Kd (I-SceI wild-type [1]) | Kd (I-SceI wild-type [2]) | Kd (I-SceI K122I [3]) | Kd (I-SceI K223I [4]) | Kd (I-SceI K122I [5]) | Kd (I-SceI K223I [6])
1 | Nicked top DNA strand substrate (structured_DNA, nick at top-strand cleavage site; 5' phosphate at nick (67-mer)) DNA 1: GGTGAAACACTCGAACGCTAGGGATAA DNA 2: CAGGGTAATATAGCCAATCCAATGATTGGCTATATTACCCTGTTATCCCTAGCGTTCGAGTGTTTCA | 4.2 ± 1.1 nM | 19.4 ± 0.7 nM | – | – | – | –
2 | 94-mer intact hairpin substrate (structured_DNA) DNA: GGTGAAACACTCGAACGCTAGGGATAACAGGGTAATATAGCCAATCCAATGATTGGCTATATTACCCTGTTATCCCTAGCGTTCGAGTGTTTCA | 2.3 ± 0.4 nM | 14.5 ± 5.7 nM | 7.3 ± 0.4 nM | 7.4 ± 1.3 nM | 17.3 ± 0.4 nM | 15.4 ± 0.3 nM
3 | CAGGGTAATATAGCCAATCCAATGATTGGCTATATTACCCTGTTAT (structured_DNA) [Hairpin product 46-mer (downstream cleavage product)] | 3.3 ± 0.6 nM | – | – | – | – | –
4 | Nicked bottom DNA strand substrate (structured_DNA, nick at bottom-strand cleavage site; 5' phosphate at nick (21-mer)) DNA 1: GGTGAAACACTCGAACGCTAGGGATAACAGGGTAATATAGCCAATCCAATGATTGGCTATATTACCCTGTTAT DNA 2: CCCTAGCGTTCGAGTGTTTCA | 3.2 ± 0.2 nM | 13.2 ± 2.1 nM | – | – | – | –
5 | Duplex linear product (upstream cleavage product) (dsDNA) DNA 1: GGTGAAACACTCGAACGCTAGGGATAA DNA 2: CCCTAGCGTTCGAGTGTTTCA | 175 ± 48 nM | – | – | – | – | –
